Columns and labels:
[1] = Size-exclusion chromatography on Superdex Peptide 10/300GL column; type: physicochemical; conditions: for formation of aggregates by size-exclusion chromatography: peptide in PBS, Superdex Peptide 10/300GL, 0.6 ml/min; for Aggregation?: size-exclusion chromatography, peptide dissolved in PBS
Method: Approximately 200 μg of each peptide X (40 amino acids), X-1 (28 amino acids), peptide A (161 amino acids), P11 (11 amino acids), P16 (16 amino acids), P21 (21 amino acids, P16-2 (16 amino acids, scrambled sequence control), X-3 (16 amino acids) and X-4 (11 amino acids) were dissolved in phosphate-buffered saline (PBS) and loaded onto a Superdex Peptide 10/300GL column. The column was eluted with PBS at a flow rate of 0.6 mL/min and eluents were analyzed for peptide content by measuring relative absorbance at a wavelength of 215 nm. (FIGS. 3A and 3B) The data is plotted with relative absorbance (Y-axis) against elution volume (X-axis). Peptides 1-9 are color coded (A—peptides (1) to (5); B (peptides (6) to (9)). As shown on panel A, peptide X (peptide 1, black line) elution profile indicated two major peaks at approximately 8 mL and 11 mL which correspond to molecular weights greater than 12.4 kDa. The theoretical molecular weight of peptide X is 4.7 kDa which is expected to elute from the column at approximately 15 mL. Under the conditions tested, peptide X existed as high molecular weight aggregates with minimal soluble (monomeric) form. On the other hand, P16 (peptide 5, green line) elution profile indicated a broad peak between 14-22 mL which is expected to contain peptides of between 0.1 and 6 kDa and is consistent with its theoretical molecular weight of 2.01 kDa.
FIG. 4 illustrates the standard curve used for size-exclusion chromatography of standard peptides using the Superdex Peptide 10/300 GL column (results provided in FIG. 3). A pool of standard peptides of various molecular weights (1. cytochrome c (Mr 12.384 kDa) 1 mg/mL; 2. aprotinin (Mr 6.512 kDa) 2 mg/mL; 3. vitamin B12 (Mr 1.355 kDa) 0.1 mg/mL; 4. (Gly)3 (Mr 0.189 kDa) 0.1 mg/mL; 5. Gly (Mr 0.075 kDa) 7.8 mg/mL) were subjected to size-exclusion chromatography using the Superdex Peptide 10/300 GL column (flow rate 0.5 ml/min at room temperature, sample volume of 50 μL, eluent 0.05M phosphate, 0.15 M NaCl, ph 7.0). The resulting chromatogram (absorbance at 215 nm (in mAU, left Y axis) and conductivity (in mS/cm, right Y axis, in function of volume of elution (in mL)) indicates the elution profiles of the above peptides with high MW peptides eluting in earlier fractions and lower MW peptides eluting in later fractions as expected. The molecular weights of peptides were plotted against elution volume generating a standard curve (not shown).
More specifically, approximately […] of each peptide X (40 amino acids), X-1 (28 amino acids), peptide A (161 amino acids), P11 (11 amino acids), P16 (16 amino acids), P21 (21 amino acids, P16-2 (16 amino acids, scrambled sequence control), X-3 (16 amino acids) and X-4 (11 amino acids) were dissolved in phosphate-buffered saline (PBS) and loaded onto a Superdex Peptide 10/300GL column. The column was eluted with PBS at a flow rate of 0.6 ml/min and eluants were analyzed for peptide content by measuring relative absorbance at a wavelength of 215 nm. The data were plotted with relative absorbance (Y-axis) against elution volume (X-axis). […] The theoretical molecular weight of peptide X is 4.7 kDa which is expected to elute from the column at approximately 15 mL. […] P16 (peptide 5) elution profile indicated a peak between 14-22 mL which was expected to contain peptides of between 0.1 and 6 kDa and is consistent with its theoretical molecular weight of 2.01 kDa.
More specifically, a pool of standard proteins of various molecular weights were subjected to size-exclusion chromatography using the Superdex Peptide 10/300 GL column. The resulting chromatogram indicated the elution profiles of the peptides with high molecular weight peptides eluting in earlier fractions and lower molecular weight peptides eluting in later fractions as expected. The molecular weights of peptides were plotted against elution volume generating a standard curve (not shown) and was used to calculate molecular weights of the CD109-based peptides. […]

[2] = test system: TGF-β1-induced PAI-1 protein production in A431 cells; test: Western blot for PAI-1 in A431 cells; type: cell-based; conditions: 10 nM peptide, 100 pM TGF-β1, 24 hrs (FIG. 7)
Method: FIG. 7 illustrates that the small molecular weight CD109-based peptide P16 (but not P11 or P16-1) inhibits TGF-β1-induced PAI-protein production. A431 cells were treated without (lane 1) or with 100 pM of TGF-β1 (lanes 2-6) in the absence (lane 2) or presence of 10 nM of P11 (11 aa peptide, lane 3), P16 (16 aa peptide, lane 4), P16-1 (scrambled peptide of 16 aa, lane 5) or Tris buffer (buffer, lane 6) for 24 hrs. Cell lysates were analyzed by Western blot for PAI-1 ([…]) protein levels and normalized to GAPDH protein levels (loading control). In the conditions tested, P16 (but not P11) inhibited TGF-β1-induced PAI-1 expression.
A431 cells were treated for 18 hours without (−) or with (+) 100 pM TGF-β1 in the presence or absence of Peptide X or P16. The peptides were previously dissolved in Tris buffer and left untreated or treated with DMSO prior to addition to the cells. Cell lysates were analyzed by Western blot for PAI-1 (plasminogen activator inhibitor-1) protein expression (top panel) and GAPDH served as a loading control (bottom panel). PAI-1 was not detected in untreated cells (lane 1).
A431 cells were grown in 6-well plates to 70-80% confluency and serum-starved overnight. Cells were washed with PBS and treated with or without TGF-β1 in presence or absence of various CD109-based peptides as indicated in the figure legends. Cells were solubilized with 500 μl of lysis buffer (50 mM Tris, pH 7.5, 150 mM NaCl, 50 mM NaF, 50 mM β-glycerophosphate, 1 mM sodium orthovanadate, 1 mM dithiothreitol, 5 mM EDTA, pH 8.0, 1% Nonidet P-40, 10% glycerol, 10 μM phenylmethylsulfonyl fluoride, 200 μg/ml bovine serum albumin, 1 μg/ml leupeptin, […] soybean trypsin inhibitor, 10 μg/ml benzamide, and 2 μg/ml pepstatin) for 30 min at 4° C. with mild agitation. Cell lysates were collected and centrifuged for 10 min at 10,000×g. The supernatants were collected and protein concentrations were determined using the Bio-Rad protein assay kit. Lysates containing equivalent protein concentrations were mixed with 0.2 volume of 5× electrophoresis sample buffer containing 5% β-mercaptoethanol and boiled for 5 min. Samples were resolved on 7.5% SDS-polyacrylamide gels and transferred to nitrocellulose membranes. Membranes were blocked for 3 h in blocking buffer (30 mM Tris, pH 7.5, 150 mM NaCl, and 0.05% (w/v) Tween 20™ (Tris-buffered saline/Tween) containing 5% (w/v) skim milk powder). The blot was incubated overnight at 4° C. with a 1:1000 dilution of anti-PAI-1 antibody (BD Biosciences). Blots were washed with Tris-buffered saline/Tween and incubated for 45 min at room temperature with a 1:5000 dilution of secondary antibody conjugated to horseradish peroxidase (Pierce). Chemiluminescence detection of the immune complexes was performed using the ECL system (Amersham Biosciences) according to the manufacturer's instructions. The membranes were stripped and reprobed with an anti-GAPDH antibody to confirm equal protein loading.
A431 cells were treated without (lane 1) or with 100 pM of TGF-β1 (lanes 2-6) in the absence (lane 2) or presence of 10 nM of P11 (11 aa peptide, lane 3), P16 (16 aa peptide, lane 4), P16-1 (scrambled peptide of 16 aa, lane 5) or Tris buffer (buffer, lane 6) for 24 hrs. Cell lysates were analyzed by Western blot for PAI-1 ([…]) protein levels and normalized to GAPDH protein levels (loading control).
A431 squamous cell carcinoma cells were treated for 18 hours without (−) or with (+) 100 pM TGF-β1 in the presence or absence of Peptide X or P16. The peptides were dissolved in Tris buffer and left untreated or treated with 0.5% DMSO prior to addition to the cells. Cell lysates were analyzed by Western blot for PAI-1 ([…]) protein expression (top panel) and GAPDH served as a loading control (bottom panel).

[3] = test system: TGF-β1-induced Smad3-driven (CAGA12-lux) transcriptional activity; test: Luciferase reporter assay in HEK293-(CAGA)12 cells; type: cell-based
[4] = test system: TGF-β1-induced Smad3-driven (CAGA12-lux) transcriptional activity; test: Luciferase reporter assay in HEK293-(CAGA)12 cells; type: cell-based; conditions: 100 pM TGF-β1, 18 hours
Method: FIGS. 5A and 5B illustrate that some small molecular weight CD109-based peptides (Peptide A, P28, P21 and […]) inhibit TGF-β1-induced Smad3-driven transcriptional activity. […] Cell lysates were analyzed for luciferase activity and data are expressed as mean±standard deviation of relative light units (RLU). […] Under the conditions tested, peptide A, P28, P21 and P16 inhibited TGF-β1-induced transcriptional (CAGA12-lux) activity.
FIG. 6 illustrates that the small molecular weight CD109-based peptide P16 (but not P16-2, P11 or X-4) inhibit TGF-β1-induced Smad3-driven transcriptional activity. HEK293 cells stably transfected with the Smad3-responsive CAGA12-lux luciferase reporter were treated for 18 hours without (−) or with (+) […] TGF-β1 in the presence or absence of 10 nM of P16-2 (16 aa scrambled control), P11 (11 aa sequence), P16 (16 aa), X-4 (11 aa) or Tris-buffer (buffer control) as indicated. Cell lysates were analyzed for luciferase activity and data are expressed as mean±standard deviation of luciferase activity. Results are shown as luciferase activity for the peptides used.
FIG. 8 illustrates that DMSO treatment enhances the TGF-β inhibitory activity of Peptide X but not P21 or P16. HEK293 cells stably transfected with the Smad3-responsive CAGA12-lux luciferase reporter were treated for 18 hours without (−) or with (+) 100 pM TGF-β1 in the presence or absence of Peptide X (PX), P21 or P16. The peptides were previously dissolved in Tris buffer and left untreated or treated with DMSO prior to addition to the cells. Addition of Tris buffer or DMSO alone served as additional controls. Cell lysates were analyzed for luciferase activity and data are expressed as mean±standard deviation of luciferase activity. Results are shown as luciferase activity. […] P16 and P21 inhibited TGF-β1-induced CAGA12-lux activity and these effects were not enhanced by DMSO treatment. […]
FIG. 25 is a graph showing the ability of CD109-based peptides to inhibit TGF-β-induced, Smad3-driven transcriptional activity. HEK293 cells stably transfected with the Smad3-responsive CAGA12-lux luciferase reporter were treated for 18 hours without (−) or with (+) 100 pM TGF-b1 in the presence or absence of 10 nM of P16, P16.2, peptide A, P15, P14, P13, P12, P11, peptide X, P21, or 2% NH4OH buffer (buffer control) as indicated. Cell lysates were analyzed for luciferase activity and data are expressed as mean±standard deviation of luciferase activity.
HEK293 cells stably transfected with the Smad3-responsive CAGA12-lux luciferase reporter construct were incubated with dimeric or monomeric forms of peptide A as indicated and treated with 100 pM TGF-b overnight. Cell lysates were analyzed for luciferase activity. Data are presented as fold-activation compared to TGF-b1 treatment alone (scaled to 1.0). M+D, mixture of monomer and dimer.
Luciferase reporter assays were performed using a HEK293-(CAGA)12 cell line that stably expresses a TGF-β/Smad3-responsive (CAGA)12-luciferase reporter gene [Cash et al. 2013]. HEK293-(CAGA)12 cells were grown in 24-well plates to 70-80% confluency and serum-starved overnight. Cells were washed with PBS and treated with or without TGF-β1 in presence or absence of various CD109-based peptides as indicated in the figure legends. Cells were then washed twice with cold PBS and solubilized in 100 μl of Passive Lysis Buffer (Promega) for 30 min at 4° C. The cell lysates were assayed for luciferase and β-galactosidase activities using commercially available kits (BD Biosciences).
HEK293 cells stably transfected with the Smad3-responsive CAGA12-lux luciferase reporter were treated for 18 hours without (−) or with (+) 100 pM TGF-β1 in the presence or absence of 10 nM (FIG. 5A) or 5 nM (FIG. 5B) of peptide A (Pep A, 161 aa), P28 (28 aa peptide), P21 (21 aa peptide), P16 (16 aa peptide), P16.2 scrambled peptide (16 aa, scrambled P16 sequence) or Tris-buffer (negative control for peptides) as indicated. […]

[5] = 10 nM peptide, 100 pM TGF-β1, 18 hours (FIG. 6)
[6] = 10 nM or 5 nM peptide, 100 pM TGF-β1, 18 hours (FIG. 5)

Sequence	formation of aggregates by size-exclusion chromatography [1]	Aggregation? [1]	inhibition of TGF-β1-induced PAI-1 protein production [2]	inhibition of TGF-β1-induced CAGA12-lux activity [3, 5]	inhibition of TGF-β1-induced CAGA12-lux activity, peptide pre-treated with DMSO ([4]; 0.5% DMSO pre-treatment (FIG. 8))	inhibition of TGF-β1-induced CAGA12-lux activity, peptide in Tris buffer left untreated ([4]; no DMSO (FIG. 8))	inhibition of TGF-β1-induced CAGA12-lux activity [3, 6]
ETWIWLDTNMG [Peptide P11]	did not	Not aggregated	not	did not	–	–	–
ETWIWLDTNMGSRIYQEFEVT [Peptide P21]	did not	Not aggregated	–	–	not enhanced	inhibited	inhibited
GSRIYQEFEVT [Peptide X-4]	did not	Not aggregated	–	did not	–	–	–
ILNTWMDSTQIGYRWE [Peptide P16-1, scrambled peptide of 16 aa, control, reference compound]	–	–	no effect	–	–	–	–
LDTNMGSRIYQEFEVT [Peptide X-3]	formed aggregates	Aggregated	–	–	–	–	–
WINMDTGQLIEQRYTS [Peptide P16-2, reference compound]	did not	Not aggregated	–	no effect	–	–	no inhibitory effect

— patent US11787850B2, “Peptidic TGF-beta antagonists” (priority 2015, dated 2023)
